Patent WO2007124463A1 (dated 2007)
Blank lines part the entries; values can stand above or below the binder they belong to.

Tests used:
human GLP-1 receptor [1] = target: T1, human GLP-1 receptor (human, UniProt P43220 24-463); test: displacement of 0.2 nM 125I-GLP-1 from membranes of CHOK1 cells expressing human GLP-1 receptor
T1 construct: whole, on cells; also called human receptor; GLP-IR

human GLP-1 receptor [2] = target: T1, human GLP-1 receptor; test: cell-based or functional assay
mouse GLP-1 receptor = target: T2, mouse GLP-1 receptor (mouse, UniProt O35659 22-463); test: cell-based or functional assay
T2 sequence (looked up): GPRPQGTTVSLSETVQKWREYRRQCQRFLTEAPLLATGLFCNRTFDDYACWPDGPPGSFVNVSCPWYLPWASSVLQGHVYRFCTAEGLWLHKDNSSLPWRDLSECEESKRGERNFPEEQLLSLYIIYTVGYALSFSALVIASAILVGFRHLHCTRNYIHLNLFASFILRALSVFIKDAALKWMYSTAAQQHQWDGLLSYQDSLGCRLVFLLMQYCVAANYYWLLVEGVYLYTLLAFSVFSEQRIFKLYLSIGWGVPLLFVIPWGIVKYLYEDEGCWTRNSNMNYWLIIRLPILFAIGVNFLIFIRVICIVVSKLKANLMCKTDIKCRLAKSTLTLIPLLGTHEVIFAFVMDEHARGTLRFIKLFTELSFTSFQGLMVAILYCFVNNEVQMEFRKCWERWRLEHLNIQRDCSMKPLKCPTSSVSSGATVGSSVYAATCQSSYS

glucagon [3] = target: T3, glucagon (UniProt P01275 53-81); test: inhibition of 200 pM 125I-glucagon binding to crude membranes of cells expressing the glucagon receptor, dose range of AG159
T3 construct: mature

glucagon [4] = target: T3, glucagon; test: cell-based or functional assay

T3 sequence (P01275 53-81): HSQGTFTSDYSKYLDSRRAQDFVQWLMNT

- IC50 (human GLP-1 receptor [1]): 5 to 10 nM
- EC50 of activation, GLP-1R luciferase reporter assay (human GLP-1 receptor [2]): 0.1 nM
- EC50 of activation, GLP-1R luciferase reporter assay (mouse GLP-1 receptor): 5 nM
B1: AG159LC:GLP(A2G)-AG159 IgG2 (other)
light: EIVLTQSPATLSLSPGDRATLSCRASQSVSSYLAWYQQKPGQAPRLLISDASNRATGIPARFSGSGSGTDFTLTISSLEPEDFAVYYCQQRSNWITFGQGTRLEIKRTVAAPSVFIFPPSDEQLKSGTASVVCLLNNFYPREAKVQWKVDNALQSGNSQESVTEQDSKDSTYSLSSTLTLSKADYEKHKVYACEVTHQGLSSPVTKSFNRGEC
heavy: HGEGTFTSDVSSYLEGQAAKEFIAWLVKGRGGSGSATGGSGSTASSGSGSATGGGGGGQVQLVESGGGVVQPGRSLRLSCAASGFTFSSYGMHWVRQAPGKGLEWVAVIYYDGSNKYYADSVKGRFTISRDITKNTLYLQMNSLRAEDTAVYYCARASRGFDYWGQGTLVTVSS
notes: GLP-1 peptide-antibody fusion; It was produced in CHO cells; also called GLP(A2G)-AG159 HC; AG159LC:GLP-1-AG159 IgG2; not shown: human IgG2 heavy chain constant region

- IC50 (glucagon [3]): 0.2 nM
- IC50 of neutralization of glucagon stimulated luciferase reporter activity (cells expressing recombinant glucagon receptor, 0.1 nM glucagon) (glucagon [4]): 4 nM
B2: AG159 fully human anti-glucagon monoclonal antibody (antibody, V domains shown, not shown: a dimerising Fc or GST)
VH: QVQLVESGGGVVQPGRSLRLSCAASGFTFSSYGMHWVRQAPGKGLEWVAVIYYDGSNKYYADSVKGRFTISRDITKNTLYLQMNSLRAEDTAVYYCARASRGFDYWGQGTLVTVSS
VL: EIVLTQSPATLSLSPGDRATLSCRASQSVSSYLAWYQQKPGQAPRLLISDASNRATGIPARFSGSGSGTDFTLTISSLEPEDFAVYYCQQRSNWITFGQGTRLEIKR
notes: also called AGl 59; AG159 Ab

- IC50 (human GLP-1 receptor [1]): 5 to 10 nM
- EC50 of activation, GLP-1R luciferase reporter assay (human GLP-1 receptor [2]): 0.1 nM
- EC50 of activation, GLP-1R luciferase reporter assay (mouse GLP-1 receptor): 5 nM
B3: GLP(A2G)-AG159LC:AG159 IgG2 (other)
light: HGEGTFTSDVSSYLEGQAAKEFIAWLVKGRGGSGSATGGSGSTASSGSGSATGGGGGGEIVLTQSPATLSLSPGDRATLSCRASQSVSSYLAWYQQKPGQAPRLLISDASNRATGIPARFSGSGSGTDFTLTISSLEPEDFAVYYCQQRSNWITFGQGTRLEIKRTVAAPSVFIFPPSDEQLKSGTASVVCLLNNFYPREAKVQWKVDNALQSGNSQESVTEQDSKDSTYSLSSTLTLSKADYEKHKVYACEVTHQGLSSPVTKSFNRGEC
heavy: B2 VH
notes: GLP-1 peptide-antibody fusion; also called GLP(A26)-AG159LC:AG159 IgG2; not shown: which one cannot be told, Tab
